Patent US20180346602A1

Columns and labels:
[1] = biological target: anti-VEGF/ANG2 antibody (IgG1 subclass with mutations P329G/L234A/L235A/I253A/H310A/H435A) [IgG part: P01857]; experiment: sandwich ELISA assay A; capture M1.7.10-Bi; antibody 1 at 6 ng/mL
[2] = biological target: anti-VEGF/ANG2 antibody (IgG1 subclass with mutations P329G/L234A/L235A) [IgG part: P01857]; experiment: sandwich ELISA assay A; capture M1.7.10-Bi; antibody 2 at 2 ng/mL
[3] = biological target: anti-VEGF/ANG2 antibody (IgG1 subclass with mutations P329G/L234A/L235A) [IgG part: P01857]; experiment: sandwich ELISA assay A; capture M1.7.10-Bi; antibody 2 at 6 ng/mL
[4] = biological target: anti-VEGF/ANG2 antibody (wild-type IgG1 subclass) [IgG part: P01857]; experiment: sandwich ELISA assay A; capture M1.7.10-Bi; antibody 5 at 3 ng/mL
[5] = biological target: anti-IGF-1R antibody (IgG1 subclass with mutations I253A/H310A/H435A) [IgG part: P01857]; experiment: sandwich ELISA assay A; capture M1.7.10-Bi; antibody 3 at 13 ng/mL
[6] = biological target: anti-P-Selectin antibody (IgG4 subclass with mutations S228P/L235E) [IgG part: P01861]; experiment: sandwich ELISA assay A; capture M1.7.10-Bi; antibody 4 at 50 ng/mL
[7] = biological target: anti-VEGF/ANG2 antibody (wild-type IgG1 subclass) [IgG part: P01857]; experiment: sandwich ELISA assay A; capture M1.7.10-Bi; antibody 5 at 13 ng/mL
[8] = biological target: anti-VEGF/ANG2 antibody (wild-type IgG1 subclass) [IgG part: P01857]; experiment: sandwich ELISA assay A; capture M1.7.10-Bi; antibody 5 at 25 ng/mL
[9] = biological target: anti-VEGF/ANG2 antibody (wild-type IgG1 subclass) [IgG part: P01857]; experiment: sandwich ELISA assay A; capture M1.7.10-Bi; antibody 5 at 50 ng/mL
[10] = biological target: anti-VEGF/ANG2 antibody (IgG1 subclass with mutations P329G/L234A/L235A/I253A/H310A/H435A) [IgG part: P01857]; experiment: sandwich ELISA assay A; capture M1.7.10-Bi; antibody 1 at 100 ng/mL
[11] = biological target: anti-IGF-1R antibody (IgG1 subclass with mutations I253A/H310A/H435A) (human) [IgG part: P01857]; experiment: sandwich ELISA assay C; capture on SA plate; tracer FcγRI-Dig; analyte 6 ng/mL
[12] = biological target: anti-P-Selectin antibody (IgG4 subclass with mutations S228P/L235E) (human) [IgG part: P01861]; experiment: as above
[13] = biological target: anti-VEGF/ANG2 antibody (IgG1 subclass with mutations P329G/L234A/L235A) (human) [IgG part: P01857]; experiment: as above
[14] = biological target: anti-VEGF/ANG2 antibody (IgG1 subclass with mutations P329G/L234A/L235A/I253A/H310A/H435A) (human) [IgG part: P01857]; experiment: as above
[15] = biological target: anti-IGF-1R antibody (IgG1 subclass with mutations I253A/H310A/H435A) (human) [IgG part: P01857]; experiment: sandwich ELISA assay B; capture on SA plate; tracer M1.7.10-Dig; analyte 2 ng/mL
[16] = biological target: anti-VEGF/ANG2 antibody (IgG1 subclass with mutations P329G/L234A/L235A) (human) [IgG part: P01857]; experiment: as above
[17] = biological target: anti-VEGF/ANG2 antibody (IgG1 subclass with mutations P329G/L234A/L235A/I253A/H310A/H435A) (human) [IgG part: P01857]; experiment: as above
[18] = biological target: anti-IGF-1R antibody (IgG1 subclass with mutations I253A/H310A/H435A) (human) [IgG part: P01857]; experiment: sandwich ELISA assay C; capture on SA plate; tracer FcγRI-Dig; analyte 100 ng/mL
[19] = biological target: anti-P-Selectin antibody (IgG4 subclass with mutations S228P/L235E) (human) [IgG part: P01861]; experiment: as above
[20] = biological target: anti-VEGF/ANG2 antibody (IgG1 subclass with mutations P329G/L234A/L235A) (human) [IgG part: P01857]; experiment: as above
[21] = biological target: anti-VEGF/ANG2 antibody (IgG1 subclass with mutations P329G/L234A/L235A/I253A/H310A/H435A) (human) [IgG part: P01857]; experiment: as above
[22] = biological target: anti-IGF-1R antibody (IgG1 subclass with mutations I253A/H310A/H435A) (human) [IgG part: P01857]; experiment: sandwich ELISA assay B; capture on SA plate; tracer M1.7.10-Dig; analyte 0 ng/mL (blank)
[23] = biological target: anti-P-Selectin antibody (IgG4 subclass with mutations S228P/L235E) (human) [IgG part: P01861]; experiment: as above
[24] = biological target: anti-VEGF/ANG2 antibody (IgG1 subclass with mutations P329G/L234A/L235A) (human) [IgG part: P01857]; experiment: as above
[25] = biological target: anti-VEGF/ANG2 antibody (IgG1 subclass with mutations P329G/L234A/L235A/I253A/H310A/H435A) (human) [IgG part: P01857]; experiment: as above

| signal [OD405 nm] [1] [OD405 nm] | signal [OD405 nm] [2] [OD405 nm] | signal [OD405 nm] [3] [OD405 nm] | signal [OD405 nm] [4] [OD405 nm] | signal [OD405 nm] [5] [OD405 nm] | signal [OD405 nm] [6] [OD405 nm] | signal [OD405 nm] [7] [OD405 nm] | signal [OD405 nm] [8] [OD405 nm] | signal [OD405 nm] [9] [OD405 nm] | signal [OD405 nm] [10] [OD405 nm] | signal [OD405 nm] [11] [OD405 nm] | signal [OD405 nm] [12] [OD405 nm] | signal [OD405 nm] [13] [OD405 nm] | signal [OD405 nm] [14] [OD405 nm] | signal [OD405 nm] [15] [OD405 nm] | signal [OD405 nm] [16] [OD405 nm] | signal [OD405 nm] [17] [OD405 nm] | signal [OD405 nm] [18] [OD405 nm] | signal [OD405 nm] [19] [OD405 nm] | signal [OD405 nm] [20] [OD405 nm] | further results | Binder |
| --- | --- | --- | --- | --- | --- | --- | --- | --- | --- | --- | --- | --- | --- | --- | --- | --- | --- | --- | --- | --- | --- |
| 0.057 | 0.047 | 0.044 | 0.039 | 1.74 | 0.052 | 0.045 | 0.053 | 0.045 | 0.059 | 0.104 | 0.051 | 0.06 | 0.06 | 1.48 | 0.041 | 0.041 | 2.1 | 0.069 | 0.076 | signal [OD405 nm] [21]: 0.079 OD405 nm; signal [OD405 nm] [22]: 0.037 OD405 nm; signal [OD405 nm] [23]: 0.038 OD405 nm; signal [OD405 nm] [24]: 0.038 OD405 nm; signal [OD405 nm] [25]: 0.047 OD405 nm | anti-AAA variant Fc-region antibody M1.6.22 (antibody, V domains shown) VH: EVQLVESGGDLVKPGGSLKLSCAASGFTFSSYGMSWVRQTPDKRLEWVATISSGGSYIYYPDSVKGRFTISRDNAKNTLYLQMSSLKSEDTAMYYCARLGMITTGYAMDYWGQGTSVTVSS VL: DVLMTQTPLSLPVSLGDQASISCRSSQTIVHSTGHTYLEWFLQKPGQSPKLLIYKVSNRFSGVPDRFSGSGSGTDFTLKISRVEAEDLGVYYCFQGSHVPYTFGGGTKLEIK |
| 0.042 | 0.669 | 1.99 | 0.033 | 0.04 | 0.037 | 0.038 | 0.037 | 0.041 | 0.043 | 1.21 | 1.18 | 1.22 | 1.17 | 0.047 | 0.125 | 0.036 | 1.2 | 1.17 | 1.22 | signal [OD405 nm] [21]: 1.19 OD405 nm; signal [OD405 nm] [22]: 0.045 OD405 nm; signal [OD405 nm] [23]: 0.049 OD405 nm; signal [OD405 nm] [24]: 0.038 OD405 nm; signal [OD405 nm] [25]: 0.035 OD405 nm | anti-variant (human) Fc-region antibody M1.3.17 (antibody, V domains shown) VH: EVKLLESGGGLVQPGGSLKLSCAASGIDFRRYWMNWVRQAPGKGLEWIGEIDPDSSTINYTPSLKDKFIISRDNAKNTMYLQMRKVRSEDTALYYCARPYDYGAWFAYWGQGTLVTVSA VL: QAVVTQESALTTSPGETVTLTCRSTTGAVTTSNYANWVQEKPDHLFTGLIGGTNKRAPGVPARFSGSLIGDKAALTITGAQTEDEAIYFCALWYSDHWVFGGGTKLTVL |
| 0.045 | 1.13 | 2.24 | 0.038 | 0.044 | 0.049 | 0.042 | 0.039 | 0.048 | 0.053 | 0.069 | 0.053 | 0.06 | 0.079 | 0.047 | 1.73 | 0.049 | 0.11 | 0.08 | 0.082 | signal [OD405 nm] [21]: 0.05 OD405 nm; signal [OD405 nm] [22]: 0.04 OD405 nm; signal [OD405 nm] [23]: 0.035 OD405 nm; signal [OD405 nm] [24]: 0.046 OD405 nm; signal [OD405 nm] [25]: 0.049 OD405 nm | anti-variant (human) Fc-region antibody M1.7.24 (antibody, V domains shown) VH: EVKLLESGGGLVQPGGSLKLSCAASGFDFSRYWMNWVRQAPGKGLEWIGEITPDSSTINYTPSLKDKFIISRDNAKNTLYLQMIKVRSEDTALYYCVRPYDYGAWFASWGQGTLVTVSA VL: QAVVTQESALTTSPGETVTLTCRSSTGAVTTSNYANWVQEKPDHLFTGLIGGTNKRAPGVPARFSGSLIGDKAALTITGAQTEDEAIYFCALWYSNHWVFGGGTKLTVL |
